This is an account of results in article PMC11235169 (2024).

Test [1] addresses T1, recombinant sushi domain protein.
T1 chain: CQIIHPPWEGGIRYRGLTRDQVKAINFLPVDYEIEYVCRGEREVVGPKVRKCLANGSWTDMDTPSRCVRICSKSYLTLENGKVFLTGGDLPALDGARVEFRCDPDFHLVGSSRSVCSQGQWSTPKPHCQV
Briefly: FP.

Test [2] shares this target. Kind of test: ITC. In general terms: In ITC the heat of successive injections is recorded.
Test [3] has as its target T2, TMR-hAJAP17 (human).
T2 chain: ETEFIAWGPTGDEEALE
Kind of test: fluorescence polarisation; saturation binding: sushi domain protein (0.73 to 1500 nM) added to TMR-hAJAP17 (25 nM); 20 mM NaPi pH 6.8, 50 mM NaCl, 0.5 mM EDTA, 1% BSA, 25°C; one-site binding model. For orientation: Fluorescence polarisation rises when a labelled molecule tumbles more slowly, as on binding a larger partner.

In test [4] the target is recombinant sushi domain protein. Briefly: ITC; 100 μM hAJAP17 or 300 μM W183C peptide injected into 10 or 30 μM sushi domain protein in the cell; 25°C; 20 mM NaPi pH 7.4; one-site binding model.
The target is the same in test [5]. Briefly: fluorescence polarisation; competition: preformed complex of sushi domain protein (40 nM) and TMR-hAJAP17 (25 nM) outcompeted with unlabeled peptides (0.006 to 6.25 μM or 0.03 to 62.5 μM); 20 mM NaPi pH 6.8, 50 mM NaCl, 0.5 mM EDTA, 1% BSA, 25°C; Ki calculated from sigmoidal dose-response fits.

As for ETEFIACGPTGDEEALE [hAJAP17-W183C], the Ki (as a rule, the equilibrium dissociation constant of an inhibitor or competing ligand from its target) in test [1] was 49.3 µM. For the same molecule, the Kd (usually a measure of binding affinity in units of concentration) in test [2] came to 46.7 µM.

B1: recombinant sushi domain protein (domain or fragment)
chain: T1 chain
modifications: not checked
As for B1, the Kd in test [3] came out at 0.0204 µM.

B2: mAJAP17-W183C (peptide)
chain: ETEFIACGPTGDEDALE
modifications: Limits taken by alignment with the printed human 17-mer … (177-193, W183 at position 7; W183 has the same number in mouse). C-terminal amide is likely, as printed for the TMR-hAJAP17 peptide, but is not stated for this one
Turning to B2, the Ki in test [1] turned out to be 44.8 µM.

For the molecule ETEFIAWGPTGDEEALE [hAJAP17], in test [4], the dissociation constant (Kd) worked out at 0.047 µM and the stoichiometry N (in general, the number of molecules, sites or subunits per partner or assembly) worked out at 1. For the same molecule, the Ki in test [5] was 0.06 µM.
